Measurements as given in patent US5840867.

Target: thrombin (UniProt P00734;P00734 P00734:328-363,P00734:364-622)
Assay: inhibition; fibrinogen clotting assay

GGTTGGTGTGGTTGGGT (ssDNA, P(O)NH(CH2CH2OCH3) (MEA) linkages between 15-16 and 16-17) [17-mer with 3' MEA linkages GGTTGGTGTGGTTGG#G#T]
Ki: 35 nM

GGTTGGTGTGGTTGG (ssDNA, PS linkages between 13-14 and 14-15) [15-mer with 3' thioates GGTTGGTGTGGTT*G*G]
Ki: 40 nM

GGTTGGTGTGGTTGG (ssDNA, PS at all linkages) [15-mer all thioate]
Ki: 280 nM

B1: 15-mer GGTTGGTGTGGTU'GG (ssDNA)
DNA: GGTTGGTGTGGTTGG
modifications: 5-(1-pentynyl)uracil at position 13 [13 = 5-(1-pentynyl)uracil (dU analog written as T)]
Ki: 20 nM

GGTTGGTGTGGTTGG (ssDNA, dU at positions 3 and 12 [n positions 3,12 = modified dU]) [15-mer GG(dU)TGGTGTGG(dU)TGG]
Ki: 80 nM

GGTTGGTGTGGTTGG (ssDNA, dU at positions 7 and 9 [n positions 7,9 = modified dU]) [15-mer GGTTGG(dU)G(dU)GGTTGG]
Ki: 15 nM
